One data set has as its target T1, Nectin-4 (Homo sapiens, UniProt Q96NY8).
T1 construct: endogenous in cells
T1 sequence (Q96NY8 32-510): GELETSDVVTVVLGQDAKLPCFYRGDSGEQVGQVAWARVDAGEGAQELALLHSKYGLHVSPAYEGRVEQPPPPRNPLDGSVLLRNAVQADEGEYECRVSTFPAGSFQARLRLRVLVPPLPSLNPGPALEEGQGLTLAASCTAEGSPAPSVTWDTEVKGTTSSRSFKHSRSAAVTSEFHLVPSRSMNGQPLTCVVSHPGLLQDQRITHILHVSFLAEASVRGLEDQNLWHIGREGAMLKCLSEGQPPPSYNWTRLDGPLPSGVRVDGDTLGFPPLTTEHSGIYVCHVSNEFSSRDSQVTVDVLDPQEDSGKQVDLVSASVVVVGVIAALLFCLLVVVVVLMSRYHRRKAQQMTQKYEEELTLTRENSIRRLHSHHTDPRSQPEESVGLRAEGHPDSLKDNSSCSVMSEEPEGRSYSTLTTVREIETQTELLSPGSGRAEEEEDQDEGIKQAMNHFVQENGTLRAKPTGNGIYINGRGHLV
The settings on record: described in WO2022/207822 and WO2022/207825; cited from earlier work.

Data set [1] is described as follows: Hydrophobic interaction chromatography (HIC) versus naked 15A7.5 mAb. The following applies: compared with naked 15A7.5 mAb (FIG. 2). The format is physicochemical. The method, then: As determined by SEC-HPLC, less than 5% material was aggregated. […] (See FIG. 2 and corresponding Brief Description). […] (See FIG. 3 and corresponding Brief Description). In vitro cytotoxic activity was assessed for the HCT-116-2G10 clone expressing human nectin-4. (See FIG. 4 and corresponding Brief Description).

Data on two molecules can be found in patent US12419964B2, “Antibody drug conjugate (ADC) targeting Nectin 4 and comprising an exatecan payload” (ELI LILLY AND COMPANY, priority 2023, dated 2025).

B1: 15A7.5: anti-Nectin-4 monoclonal antibody described in WO2022/207822 and WO2022/207825 (antibody)
heavy: EVQLVESGGGLVQPGGSLRLSCAASGFTFSNYGMAWVRQAPGKGLEWVSFISNLAYGINYADTVTGRFTISRDNAKNSLYLQMNSLRAEDTAVYYCARGARATGWFAYWGQGTLVTVSSASTKGPSVFPLAPSSKSTSGGTAALGCLVKDYFPEPVTVSWNSGALTSGVHTFPAVLQSSGLYSLSSVVTVPSSSLGTQTYICNVNHKPSNTKVDKRVEPKSCDKTHTCPPCPAPEFEGGPSVFLFPPKPKDTLMISRTPEVTCVVVDVSHEDPEVKFNWYVDGVEVHNAKTKPREEQYNSTYRVVSVLTVLHQDWLNGKEYKCKVSNKALPASIEKTISKAKGQPREPQVYTLPPSREEMTKNQVSLTCLVKGFYPSDIAVEWESNGQPENNYKTTPPVLDSDGSFFLYSKLTVDKSRWQQGNVFSCSVMHEALHNHYTQKSLSLSPGK
light: DIQMTQSPSSLSASVGDRVTITCKASQNVDTHVAWYQQKPGKAPKALIYSASYRYSGVPSRFSGSGSGTDFTLTISSLQPEDFATYYCQQYNSYPLTFGGGTKVEIKRTVAAPSVFIFPPSDEQLKSGTASVVCLLNNFYPREAKVQWKVDNALQSGNSQESVTEQDSKDSTYSLSSTLTLSKADYEKHKVYACEVTHQGLSSPVTKSFNRGEC
Take B1: the “selectivity of affinity, tumor cells versus keratinocytes” value with Nectin-4 is recorded as “selective affinity for tumor cells versus keratinocytes”.

B2: ETx-22: ADC of H1L2_15A7.5 anti-Nectin-4 mAb (HC SEQ ID NO:5, LC SEQ ID NO:6) conjugated via cysteines to exatecan Linker-Payload of Formula (L-P′) (conjugate)
heavy: B1 heavy
light: B1 light
modifications: exatecan linker-payload conjugated via cysteines
Turning to B2, the “hydrophilicity by HIC profile” value in data set [1] is “high homogenous hydrophilicity”.
